The values below come from PMC3751551.

One assay addresses Rluc-BST2 (UniProt Q10589). In words: BRET assay. As to conditions: HEK293T cells; parent: est. 1.4; read off a plot.
The next assay deals with T1, Vm-EYFP, P05923.
T1 chain: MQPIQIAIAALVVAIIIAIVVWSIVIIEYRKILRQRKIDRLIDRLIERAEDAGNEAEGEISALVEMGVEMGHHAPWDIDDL
The experiment in a line: BRET assay. The settings on record: chain shown with the change, HEK293T cells, parent: est. 1.6, read off a plot.

The mark [1] stands for this setting: forty-eight hours post-transfection.

In the case of Vm-EYFP (from UniProt P05923) I16A, the response with Rluc-BST2 was 1.2.

Vm-EYFP (from UniProt P05923) V21A: in the assay with Rluc-BST2, the response turned out to be 1.1.

With “Vm-EYFP (from UniProt P05923) S23A; I24A; V25A”, the response with Rluc-BST2 came to 1.1.

In the case of Vm-EYFP (from UniProt P05923) A18V, the response in the assay with Rluc-BST2 was 0.52.

In the case of Vm-EYFP (from UniProt P05923) I27A, in the assay with Rluc-BST2, the response came to 1.3.

With Vm-EYFP (from UniProt P05923) I17A, the response with Rluc-BST2 was determined as 1.4.

With Vm-EYFP (from UniProt P05923) V13A, in the assay with Rluc-BST2, the response came to 1.3.

As to “Vm-EYFP (from UniProt P05923) I8A; V9A; A10V”, the response with Rluc-BST2 stood at 1.2.

As to “Vm-EYFP (from UniProt P05923) L11A; V12A; V13A”, the response with Rluc-BST2 came out at 0.9.

As for “Vm-EYFP (from UniProt P05923) A14V; I15A; I16A”, the response with Rluc-BST2 is 0.76.

For the molecule Vm-EYFP (from UniProt P05923) V20A, in the assay with Rluc-BST2, the response stood at 1.3.

Consider Vm-EYFP (from UniProt P05923) I15A, for which the response with Rluc-BST2 was 1.2.

For Vm-EYFP (from UniProt P05923) W22A, in the assay with Rluc-BST2, the response turned out to be 0.69.

In the case of Vm-EYFP (from UniProt P05923) I26A, the response with Rluc-BST2 was found to be 1.3.

Regarding Vm-EYFP (from UniProt P05923) E28A, the response with Rluc-BST2 amounted to 1.1.

For the molecule Vm-EYFP (from UniProt P05923) V12A, in the assay with Rluc-BST2, the response was 1.3.

Regarding “Vm-EYFP (from UniProt P05923) V20A; V21A; W22A”, the response in the assay with Rluc-BST2 worked out at 0.41.

Consider Vm-EYFP (from UniProt P05923) I19A, for which the response with Rluc-BST2 was found to be 1.2.

Take Vm-EYFP (from UniProt P05923) A14V: in the assay with Rluc-BST2, the response worked out at 1.2.

As to Vm-EYFP (from UniProt P05923) L11A, the response with Rluc-BST2 was found to be 0.93.

Regarding “Vm-EYFP (from UniProt P05923) I26A; I27A; E28A”, the response with Rluc-BST2 is 0.85.

Regarding “Vm-EYFP (from UniProt P05923) I5A; V6A; A7V”, the response with Rluc-BST2 stood at 0.98.

Regarding “Vm-EYFP (from UniProt P05923) I17A; A18V; I19A”, the response with Rluc-BST2 was 0.58.

B1: Rluc-BST2, Q10589 P40A; L41A; I42A (protein)
chain: MASTSYDYCRVPMEDGDKRCKLLLGIGILVLLIIVILGVAAAIFTIKANSEACRDGLRAVMECRNVTHLLQQELTEAQKGFQDVEAQAATCNHTVMALMASLDAEKAQGQKKVEELEGEITTLNHKLQDASAEVERLRRENQVLSVRIADKKYYPSSQDSS
With B1, the response with Vm-EYFP, P05923 (setting [1]) was 0.82.

B2: Rluc-BST2, Q10589 P40A (protein)
chain: MASTSYDYCRVPMEDGDKRCKLLLGIGILVLLIIVILGVALIIFTIKANSEACRDGLRAVMECRNVTHLLQQELTEAQKGFQDVEAQAATCNHTVMALMASLDAEKAQGQKKVEELEGEITTLNHKLQDASAEVERLRRENQVLSVRIADKKYYPSSQDSS
As to B2, the response with Vm-EYFP, P05923 came to 1.1.

B3: Rluc-BST2, Q10589 L22A; L23A; L24A (protein)
chain: MASTSYDYCRVPMEDGDKRCKAAAGIGILVLLIIVILGVPLIIFTIKANSEACRDGLRAVMECRNVTHLLQQELTEAQKGFQDVEAQAATCNHTVMALMASLDAEKAQGQKKVEELEGEITTLNHKLQDASAEVERLRRENQVLSVRIADKKYYPSSQDSS
For the molecule B3, the response with Vm-EYFP, P05923 (setting [1]) is 1.3.

B4: Rluc-BST2, Q10589 I42A (protein)
chain: MASTSYDYCRVPMEDGDKRCKLLLGIGILVLLIIVILGVPLAIFTIKANSEACRDGLRAVMECRNVTHLLQQELTEAQKGFQDVEAQAATCNHTVMALMASLDAEKAQGQKKVEELEGEITTLNHKLQDASAEVERLRRENQVLSVRIADKKYYPSSQDSS
Consider B4, for which, in the assay with Vm-EYFP, P05923, the response was found to be 1.4.

B5: Rluc-BST2, Q10589 I46A; K47A (protein)
chain: MASTSYDYCRVPMEDGDKRCKLLLGIGILVLLIIVILGVPLIIFTAAANSEACRDGLRAVMECRNVTHLLQQELTEAQKGFQDVEAQAATCNHTVMALMASLDAEKAQGQKKVEELEGEITTLNHKLQDASAEVERLRRENQVLSVRIADKKYYPSSQDSS
With B5, the response with Vm-EYFP, P05923 (setting [1]) worked out at 1.6.

B6: Rluc-BST2, Q10589 I36A (protein)
chain: MASTSYDYCRVPMEDGDKRCKLLLGIGILVLLIIVALGVPLIIFTIKANSEACRDGLRAVMECRNVTHLLQQELTEAQKGFQDVEAQAATCNHTVMALMASLDAEKAQGQKKVEELEGEITTLNHKLQDASAEVERLRRENQVLSVRIADKKYYPSSQDSS
Consider B6, for which the response with Vm-EYFP, P05923 was 1.5.

B7: Rluc-BST2, Q10589 V39A (protein)
chain: MASTSYDYCRVPMEDGDKRCKLLLGIGILVLLIIVILGAPLIIFTIKANSEACRDGLRAVMECRNVTHLLQQELTEAQKGFQDVEAQAATCNHTVMALMASLDAEKAQGQKKVEELEGEITTLNHKLQDASAEVERLRRENQVLSVRIADKKYYPSSQDSS
Take B7: the response in the assay with Vm-EYFP, P05923 worked out at 1.6.

B8: Rluc-BST2, Q10589 I34A (protein)
chain: MASTSYDYCRVPMEDGDKRCKLLLGIGILVLLIAVILGVPLIIFTIKANSEACRDGLRAVMECRNVTHLLQQELTEAQKGFQDVEAQAATCNHTVMALMASLDAEKAQGQKKVEELEGEITTLNHKLQDASAEVERLRRENQVLSVRIADKKYYPSSQDSS
In the case of B8, the response in the assay with Vm-EYFP, P05923 worked out at 1.1.

B9: Rluc-BST2, Q10589 L41A (protein)
chain: MASTSYDYCRVPMEDGDKRCKLLLGIGILVLLIIVILGVPAIIFTIKANSEACRDGLRAVMECRNVTHLLQQELTEAQKGFQDVEAQAATCNHTVMALMASLDAEKAQGQKKVEELEGEITTLNHKLQDASAEVERLRRENQVLSVRIADKKYYPSSQDSS
In the case of B9, the response with Vm-EYFP, P05923 is 0.93.

B10: Rluc-BST2, Q10589 I43A; F44A; T45A (protein)
chain: MASTSYDYCRVPMEDGDKRCKLLLGIGILVLLIIVILGVPLIAAAIKANSEACRDGLRAVMECRNVTHLLQQELTEAQKGFQDVEAQAATCNHTVMALMASLDAEKAQGQKKVEELEGEITTLNHKLQDASAEVERLRRENQVLSVRIADKKYYPSSQDSS
In the case of B10, the response in the assay with Vm-EYFP, P05923 (setting [1]) stood at 1.6.

B11: Rluc-BST2, Q10589 G38A (protein)
chain: MASTSYDYCRVPMEDGDKRCKLLLGIGILVLLIIVILAVPLIIFTIKANSEACRDGLRAVMECRNVTHLLQQELTEAQKGFQDVEAQAATCNHTVMALMASLDAEKAQGQKKVEELEGEITTLNHKLQDASAEVERLRRENQVLSVRIADKKYYPSSQDSS
On to B11, for which the response in the assay with Vm-EYFP, P05923 was 1.5.

B12: Rluc-BST2, Q10589 L37A (protein)
chain: MASTSYDYCRVPMEDGDKRCKLLLGIGILVLLIIVIAGVPLIIFTIKANSEACRDGLRAVMECRNVTHLLQQELTEAQKGFQDVEAQAATCNHTVMALMASLDAEKAQGQKKVEELEGEITTLNHKLQDASAEVERLRRENQVLSVRIADKKYYPSSQDSS
As for B12, the response with Vm-EYFP, P05923 was determined as 0.77.

B13: Rluc-BST2, Q10589 I34A; V35A; I36A (protein)
chain: MASTSYDYCRVPMEDGDKRCKLLLGIGILVLLIAAALGVPLIIFTIKANSEACRDGLRAVMECRNVTHLLQQELTEAQKGFQDVEAQAATCNHTVMALMASLDAEKAQGQKKVEELEGEITTLNHKLQDASAEVERLRRENQVLSVRIADKKYYPSSQDSS
For the molecule B13, in the assay with Vm-EYFP, P05923 (setting [1]), the response stood at 0.88.

B14: Rluc-BST2, Q10589 G25A; I26A; G27A (protein)
chain: MASTSYDYCRVPMEDGDKRCKLLLAAAILVLLIIVILGVPLIIFTIKANSEACRDGLRAVMECRNVTHLLQQELTEAQKGFQDVEAQAATCNHTVMALMASLDAEKAQGQKKVEELEGEITTLNHKLQDASAEVERLRRENQVLSVRIADKKYYPSSQDSS
Regarding B14, the response with Vm-EYFP, P05923 (setting [1]) came to 1.7.

B15: Rluc-BST2, Q10589 L31A; L32A; I33A (protein)
chain: MASTSYDYCRVPMEDGDKRCKLLLGIGILVAAAIVILGVPLIIFTIKANSEACRDGLRAVMECRNVTHLLQQELTEAQKGFQDVEAQAATCNHTVMALMASLDAEKAQGQKKVEELEGEITTLNHKLQDASAEVERLRRENQVLSVRIADKKYYPSSQDSS
For the molecule B15, the response in the assay with Vm-EYFP, P05923 (setting [1]) worked out at 1.3.

B16: Rluc-BST2, Q10589 V35A (protein)
chain: MASTSYDYCRVPMEDGDKRCKLLLGIGILVLLIIAILGVPLIIFTIKANSEACRDGLRAVMECRNVTHLLQQELTEAQKGFQDVEAQAATCNHTVMALMASLDAEKAQGQKKVEELEGEITTLNHKLQDASAEVERLRRENQVLSVRIADKKYYPSSQDSS
Take B16: in the assay with Vm-EYFP, P05923, the response was determined as 1.5.

B17: Rluc-BST2, Q10589 I28A; L29A; V30A (protein)
chain: MASTSYDYCRVPMEDGDKRCKLLLGIGAAALLIIVILGVPLIIFTIKANSEACRDGLRAVMECRNVTHLLQQELTEAQKGFQDVEAQAATCNHTVMALMASLDAEKAQGQKKVEELEGEITTLNHKLQDASAEVERLRRENQVLSVRIADKKYYPSSQDSS
As to B17, the response with Vm-EYFP, P05923 (setting [1]) was found to be 1.4.

B18: Rluc-BST2, Q10589 L37A; G38A; V39A (protein)
chain: MASTSYDYCRVPMEDGDKRCKLLLGIGILVLLIIVIAAAPLIIFTIKANSEACRDGLRAVMECRNVTHLLQQELTEAQKGFQDVEAQAATCNHTVMALMASLDAEKAQGQKKVEELEGEITTLNHKLQDASAEVERLRRENQVLSVRIADKKYYPSSQDSS
With B18, in the assay with Vm-EYFP, P05923 (setting [1]), the response is 0.95.
